For one substance, EC50 (read off the curve) results are on record in patent publication US20200270321A1.

In assay [1] the target is mouse 4-1BB on activated mouse splenocytes (mouse) (UniProt P20334). In words: flow cytometry on activated mouse splenocytes, gate CD8+ T cells; PE anti-human IgG Fc-gamma F(ab')2; median fluorescence, baseline corrected.
For assay [2] the target is unchanged. In words: flow cytometry on activated mouse splenocytes, gate CD4+ T cells; PE anti-human IgG Fc-gamma F(ab')2; median fluorescence, baseline corrected. (In flow cytometry, cells or beads pass a laser one at a time.)

Sequence of mouse 4-1BB on activated mouse splenocytes (mouse) (P20334 24-256): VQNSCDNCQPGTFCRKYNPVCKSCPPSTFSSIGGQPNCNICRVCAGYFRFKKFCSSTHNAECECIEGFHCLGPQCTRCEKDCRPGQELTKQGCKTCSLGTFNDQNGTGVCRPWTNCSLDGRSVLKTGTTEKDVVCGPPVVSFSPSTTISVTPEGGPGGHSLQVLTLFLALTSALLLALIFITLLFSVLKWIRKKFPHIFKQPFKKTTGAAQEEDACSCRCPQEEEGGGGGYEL

In general, EC50 (read off the curve) refers to the concentration at which the effect is half-maximal. The low end stands for a more potent agent, the high end for a less potent agent. Regarding anti-mouse Lob12.3 huIgG1 (antibody), the values for the EC50 (read off the curve) in assay [1] and in assay [2] were 0.1 nM and 0.09 nM, respectively.
